This sample holds only a part of the variants without activity.

The labels stand for the following.
B1: TPR 5TU (parent)
chain: GGAUCUUCUCGAUCUAACAAAAAAGACAAAUCUGCCACAAAGCUUGAGAGCAUCUUCGGAUGCAGAGGCGGCAGCCUUCGGUGGCGCGAUAGCGCCAACGUUCUCAACUAUGACACGCAAAACGCGUGCUCCGUUGAAUGGAGUUUAUCAUG

Variants of B1 are the subject of this data set. Description: polymerase ribozyme fitness, log enrichment relative to wild type (log ratio); higher = more active; in vitro selection for triplet polymerase activity. The method, boiled down:
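Mutant libraries of each subunit of a heterodimeric triplet polymerase ribozyme were built by PCR and transcribed. Each library went through one round of in vitro selection in triplicate: annealing with biotinylated primer, partner subunit and triplets, frozen incubation at −7 °C, gel excision of extended constructs, streptavidin-bead capture and RT-PCR. Input and output libraries were Illumina-sequenced; only genotypes with ≥10 input reads and ≥1 read per output were kept. Fitness is log2(genotype enrichment/wild-type enrichment), using inverse-variance-weighted replicate averages.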
On to GGAUCUUCUCGAUCUAACAAAAAAGACAAAUCUGCCACAAAGCUUGAGAGCAUCUUCGGAUGCAGUGGCGGCAGCCUUCGGUGGCUCGAUAGCGCCAACGUUAUCAACUAUGACACGCAAAACGCGUGCUCCGUUGAAUGGGGUUUAUCAUG [A66U G86U C103A A142G], for which the “polymerase ribozyme fitness (log ratio)” value is not above -4.2.

Turning to GGAUCUUCUCGAUCUAACAAAAAAGACAAAUCUGCCACAAAGCUUGAGAGCAUCUUCGGAUGCAGAGGCGGCAGCCUUCUGCGGCGCGAUAGCGCCAACGUUCUCAACUAUGACACGCAAAACGCGUGCUCCGUUGAAUGGAGUUUAUCAUG [G80U U82C], the “polymerase ribozyme fitness (log ratio)” value was -1.68.

As to GGAUCUUCUCGAUCUAACAAAAAAGACAAAUCUGCCACAAAGCUUGAGAGCAGCUUCGGAUGCAGAGGCGGCAGCCUUCGGUGGCGCGAUAGCGCCAACGUUCUCAACUAUGACACGCAAAACGUGUGCUCCGUUGAAUGGAGUUUAUCAUG [U53G C125U], the “polymerase ribozyme fitness (log ratio)” value was -1.66.

In the case of GGAUCUUCUCGAUCUAACAAAAAAGACAAAUCUGCCACAAAGCUUGAGAGCAUCUUCGGAUGCAGAGACGGCAGCCUUCGGUUGCGCGAUAGCGCCAACGUUCUCAACUAUGACACGGAAAACGCGUGCUCCGUUUAAUGGAGUUUAUCAUG [G68A G83U C118G G136U], the “polymerase ribozyme fitness (log ratio)” value is not above -4.2.

As to GGAUCUUCUCGAUCUAACAAAAACGACAAAUUUGCCACUAAGCUUGAGAGCAUCUUCGGAUGCAGAGGCGGCAGCCUUCGGUGGCGCGAAAGCGGCAACGUUCUCAACUAUGACACGCAAAACGCGUGCUCCGUUGAUUGGAGAUUAUCAUG [A24C C32U A39U U90A C95G A138U U144A], the “polymerase ribozyme fitness (log ratio)” value is not above -4.2.

For the variant GGAUCUUCUCGAUCUAACAAAUAAGACAAAUCUGCCACAAAGCUUGAGAUCAUCUUCGGAUGCAGAGGCGGCAGCCUUCGGUGGCGCGAUAGCGCGAACGUUCUCAACUAUGACACGCAAAACGCGUGCUCCGUUGAAUGGAGUUUAUCAUG [A22U G50U C96G], the “polymerase ribozyme fitness (log ratio)” value was determined as 0.467.

As to GGAUCUUCUCGAUCUAACAAAAAAGACAAAUCUGCCACAAAGCUUGAGAGCAUCUUCGGAUGCAGAGGCGGCAGCCUUCGGUGGCGCGAUAGCACCAACGUUCUCAACUAUGACACCCAAAACGCGUGCUCCGUUGGAUGGAGUUUAUCAUG [G94A G117C A137G], the “polymerase ribozyme fitness (log ratio)” value was -3.09.

Take GGAUCUUCUCGAUCUAACAAAAAUGAUAAAUCUGCUACAAAGCUUGAGAGCAUCUUCCGAUGCAGAGGCGGCAGCCUUCGGUAGCGCGAUAGCGCCAACGUUCUCAACUAUUACACGCAAGACCCGUGCUCCGUUGAAUGGAGUUUAUCAUG [A24U C27U C36U G58C G83A G112U A121G G124C]: the “polymerase ribozyme fitness (log ratio)” value is not above -4.2.

Regarding GGAUCUUCUCGAUCUAAGAAAAAAGACAAAUCUGCCACAAAGCUUGAGAGCCUCUUCGGAUGCAGAGGGGGCAGGCUUCGGUGGCGCGAUAGCAUCAACGUUCUCAACUAUGUCACGCAAAACGCGUGCUCCGUUGAAUGGAGUUUAUCAUG [C18G A52C C69G C75G G94A C95U A113U], the “polymerase ribozyme fitness (log ratio)” value is not above -4.2.

For GGAUCUUCUCGAUCUAACAAAAAAGACAAAUCUGCCACAAAGCUUGAGAGCAUCUUCGGAUGCAGAGGCGGCAGCCUUCGGUGGCGCGAUAGGGCCAACGUUCUCAACUAUGACACGUAAAAUGCGUGCUCCGUUGAAUGGAGUUUAUCAUG [C93G C118U C123U], the “polymerase ribozyme fitness (log ratio)” value was -3.29.

On to GGACCUUCUCGAUCUUACAAAAAAGACAAAUCUGCCACAAAGCUUGAGAGCAUCUUCGGAUGCAGAGGCGGCAGCCUUCGGUUGCGCGACAGCGCCAACGUUCUCAACUAUGUCACGCAAAACGCGUGCUCCGUUGAAUGGAGUUUACCAUG [U4C A16U G83U U90C A113U U148C], for which the “polymerase ribozyme fitness (log ratio)” value was not above -4.2.

As to GGAUCUUCUCGAUCUAACAAAAAAGACAAAUCUGCCACAACGCUUGAGAGCAUCUUCGGAUGCAGAGGCGGCAGCCUUCGGUGGCGCGAUAGCGCCAACGUUCUCAACUAUGACACGCAAAACGCGGGCUCCGUUUAAUGUAGUUUAUCAUG [A41C U127G G136U G141U], the “polymerase ribozyme fitness (log ratio)” value was not above -4.2.

As for GGAUCUUCUCGAUCUAACAAAAAAGACAAAUCUGCCACAAAGCUUGAGAGCAUCAUCGGAUGCAGAGGCGGCAGCCUUCGGUGACGCGAUAGCGCCAACGUUCUCAACUAUGACACGCAAAACGCGUGCUCCGUUGAAUGGAAUUUAUCAUG [U55A G84A G143A], the “polymerase ribozyme fitness (log ratio)” value was -0.776.

Take GGAUCUUCUCGGUCUAACAAAAAAGACAAAUCUGCCACAAAGCUUGAGAGCAUCUUCGGAUGCAGAGGCGGCAGCCUUCGGUGGCGCGGUAGCGCCAACGUUCUCAACUAUGACACGCAAAACGCGUGCUCCGUUGAAUGGAGUUUAUCAUG [A12G A89G]: the “polymerase ribozyme fitness (log ratio)” value was -1.16.

For GGAUCUUCUCGAUCUAACAAAAAAGACUAAUCUGCCACAAAUCUUGAGAGCAUCUUCGCAUGCCGAGGCGGCAGCCUCCGGUGGCGAGAUAGCGCCAACGUUCUCAACUAUGACACGCAAAACGCGUGCUCCGUUGAAUGGAGUUUAUCAUG [A28U G42U G59C A64C U78C C87A], the “polymerase ribozyme fitness (log ratio)” value is not above -4.2.

Take GGAUCUUCUCGAUCUAACAAAAAAGACAAAUCUGCCACAAAGCUUGAGACCCUCUUCGGAUGCAGAGGCGGCAGCCCUAGGUGGCGCGAUAGCGCCAACGGUCUCAACUAUGACUCGCAAAACGCGUGCUCCGUUGAAUGGAGUUUAUCAUG [G50C A52C U77C C79A U101G A115U]: the “polymerase ribozyme fitness (log ratio)” value is not above -4.2.

With GGAUCUUCUCGAUCUAACAAAAAAGACUAAUCUGCCACAAAGCUUGAGAGCAUCUUCGGAUGCAGACGCGGCAGCCAUCGGUGGCGCGACAGCGUCAACGUUCUUAACUAUGACACGCAAAACGCGUGCUCCGUUGAAUGGGGUUUAUCAUG [A28U G67C U77A U90C C95U C105U A142G], the “polymerase ribozyme fitness (log ratio)” value is not above -4.2.

As for GGAUCUUCUCGAUCUAACAAAAAAGACAAAUCUGCCACAAAGCUUGAGAGCAUCUUCGGAUGCAGAGGCGGCAGCCUUCGGUGGCGCGAUAGCGCCAACGUUCUAAACUAUGACACGCAAAACGAGUGCUCCGUUGAAUGGAGUUUAUCAUG [C105A C125A], the “polymerase ribozyme fitness (log ratio)” value is -3.83.

GGAUCUUCUCGAUCUAACAAAAAAGACAAAUCUGCCACAAAGCCUGAGAGCAUCUUCGGAUGCAGAGGCGGCAGCCUUCGGUGGCGCAAUAGCGCCAACGUUCUCAACUAUGACACGCAAAACGCGUGCUCCGUAGAAGGGAGUUUAUCAUG [U44C G88A U135A U139G]: the “polymerase ribozyme fitness (log ratio)” value is not above -4.2.

These data come from the RNAGym collection of RNA variant scans (doi:10.1073/pnas.2313332121).
